Experimental data reported in PMC2119541.
“And” between values parts separate entries of the source, which are not always exact repeats. Equal values may be shown once.

What was measured:
Test in all cases: radioligand binding
[1] = molecular target: collagen type IX (UniProt P20849)
[2] = molecular target: collagen type III (UniProt P02461)
[3] = molecular target: laminin and collagen type IV (isotonic conditions with Ca2+)
[4] = molecular target: collagen type IV (UniProt P02462)
[5] = molecular target: collagen type V (UniProt P20908)
[6] = molecular target: Englebreth-Holm sarcoma laminin (UniProt P19137)

UniProt P02461, sequence (P02461 24-1221): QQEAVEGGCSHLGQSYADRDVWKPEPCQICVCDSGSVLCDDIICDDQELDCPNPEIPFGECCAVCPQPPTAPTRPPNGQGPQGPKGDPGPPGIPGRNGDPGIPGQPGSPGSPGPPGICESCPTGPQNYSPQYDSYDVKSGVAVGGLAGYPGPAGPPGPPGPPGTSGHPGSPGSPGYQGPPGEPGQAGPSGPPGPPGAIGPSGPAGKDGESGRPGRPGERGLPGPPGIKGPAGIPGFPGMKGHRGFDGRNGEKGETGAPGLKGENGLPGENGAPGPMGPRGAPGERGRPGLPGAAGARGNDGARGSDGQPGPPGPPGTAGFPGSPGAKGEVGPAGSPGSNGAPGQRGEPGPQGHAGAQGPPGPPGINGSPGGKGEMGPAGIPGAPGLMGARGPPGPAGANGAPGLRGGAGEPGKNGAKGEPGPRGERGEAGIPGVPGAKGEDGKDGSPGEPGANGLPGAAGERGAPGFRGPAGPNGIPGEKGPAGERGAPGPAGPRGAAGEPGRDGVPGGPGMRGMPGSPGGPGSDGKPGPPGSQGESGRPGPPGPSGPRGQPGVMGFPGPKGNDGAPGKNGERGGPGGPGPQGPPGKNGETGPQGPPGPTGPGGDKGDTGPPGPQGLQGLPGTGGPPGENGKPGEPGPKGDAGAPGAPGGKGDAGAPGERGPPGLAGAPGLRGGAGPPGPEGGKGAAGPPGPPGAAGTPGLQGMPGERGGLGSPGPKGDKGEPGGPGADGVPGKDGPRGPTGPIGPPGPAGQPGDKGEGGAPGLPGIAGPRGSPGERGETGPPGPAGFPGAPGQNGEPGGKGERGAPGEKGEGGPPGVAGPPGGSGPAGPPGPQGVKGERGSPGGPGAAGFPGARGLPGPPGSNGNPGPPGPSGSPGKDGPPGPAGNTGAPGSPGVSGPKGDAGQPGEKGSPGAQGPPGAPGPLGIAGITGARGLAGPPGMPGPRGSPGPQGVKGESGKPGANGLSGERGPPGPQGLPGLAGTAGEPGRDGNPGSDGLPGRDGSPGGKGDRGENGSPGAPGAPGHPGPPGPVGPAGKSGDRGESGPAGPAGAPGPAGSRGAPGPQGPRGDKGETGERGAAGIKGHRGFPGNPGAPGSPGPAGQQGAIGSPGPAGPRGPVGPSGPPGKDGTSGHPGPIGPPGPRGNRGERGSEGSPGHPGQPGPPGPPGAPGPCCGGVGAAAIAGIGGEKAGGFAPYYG
UniProt P20908, sequence (P20908 38-1605, chain 1 of 2): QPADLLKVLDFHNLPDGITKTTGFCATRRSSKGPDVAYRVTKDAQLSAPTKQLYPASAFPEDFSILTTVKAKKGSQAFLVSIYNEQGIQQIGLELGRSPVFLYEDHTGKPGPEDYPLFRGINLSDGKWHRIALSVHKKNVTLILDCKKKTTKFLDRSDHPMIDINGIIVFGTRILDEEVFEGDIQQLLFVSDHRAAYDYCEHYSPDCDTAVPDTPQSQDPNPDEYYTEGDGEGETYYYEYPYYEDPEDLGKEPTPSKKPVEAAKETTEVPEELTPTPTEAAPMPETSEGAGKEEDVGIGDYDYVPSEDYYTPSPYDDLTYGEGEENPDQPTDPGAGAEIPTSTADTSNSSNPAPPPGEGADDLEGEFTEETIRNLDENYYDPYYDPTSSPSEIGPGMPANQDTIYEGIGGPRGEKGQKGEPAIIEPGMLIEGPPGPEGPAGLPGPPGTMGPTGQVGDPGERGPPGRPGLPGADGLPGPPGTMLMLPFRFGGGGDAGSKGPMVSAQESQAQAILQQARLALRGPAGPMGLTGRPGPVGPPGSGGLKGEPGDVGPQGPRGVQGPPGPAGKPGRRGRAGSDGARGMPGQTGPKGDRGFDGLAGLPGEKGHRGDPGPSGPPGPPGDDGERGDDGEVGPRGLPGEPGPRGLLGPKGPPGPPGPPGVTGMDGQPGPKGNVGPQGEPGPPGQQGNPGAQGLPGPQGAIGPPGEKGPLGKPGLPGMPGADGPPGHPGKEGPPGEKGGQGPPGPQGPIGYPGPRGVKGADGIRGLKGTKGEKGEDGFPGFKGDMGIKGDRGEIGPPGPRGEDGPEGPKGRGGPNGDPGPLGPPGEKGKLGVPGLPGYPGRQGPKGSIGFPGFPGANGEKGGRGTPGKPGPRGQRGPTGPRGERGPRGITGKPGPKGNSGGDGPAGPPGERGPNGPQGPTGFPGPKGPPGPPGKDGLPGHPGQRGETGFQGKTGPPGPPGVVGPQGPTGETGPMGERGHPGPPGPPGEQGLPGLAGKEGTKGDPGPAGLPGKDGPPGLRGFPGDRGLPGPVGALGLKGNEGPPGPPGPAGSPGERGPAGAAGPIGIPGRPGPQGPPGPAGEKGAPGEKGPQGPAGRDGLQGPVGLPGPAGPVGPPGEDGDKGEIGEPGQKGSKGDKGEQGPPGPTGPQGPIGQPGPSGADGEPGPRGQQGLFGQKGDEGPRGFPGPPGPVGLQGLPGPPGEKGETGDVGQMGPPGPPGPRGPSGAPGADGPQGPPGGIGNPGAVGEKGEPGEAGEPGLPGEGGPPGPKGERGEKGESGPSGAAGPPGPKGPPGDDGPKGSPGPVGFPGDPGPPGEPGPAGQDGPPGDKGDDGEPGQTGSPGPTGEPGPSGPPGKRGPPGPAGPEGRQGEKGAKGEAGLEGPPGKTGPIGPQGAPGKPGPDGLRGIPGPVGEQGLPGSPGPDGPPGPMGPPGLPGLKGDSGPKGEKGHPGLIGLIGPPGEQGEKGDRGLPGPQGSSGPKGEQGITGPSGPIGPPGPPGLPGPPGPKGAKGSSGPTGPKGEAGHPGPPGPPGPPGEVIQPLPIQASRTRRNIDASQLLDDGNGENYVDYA
UniProt P20908, sequence (P05997 27-1229, chain 2 of 2, further chain): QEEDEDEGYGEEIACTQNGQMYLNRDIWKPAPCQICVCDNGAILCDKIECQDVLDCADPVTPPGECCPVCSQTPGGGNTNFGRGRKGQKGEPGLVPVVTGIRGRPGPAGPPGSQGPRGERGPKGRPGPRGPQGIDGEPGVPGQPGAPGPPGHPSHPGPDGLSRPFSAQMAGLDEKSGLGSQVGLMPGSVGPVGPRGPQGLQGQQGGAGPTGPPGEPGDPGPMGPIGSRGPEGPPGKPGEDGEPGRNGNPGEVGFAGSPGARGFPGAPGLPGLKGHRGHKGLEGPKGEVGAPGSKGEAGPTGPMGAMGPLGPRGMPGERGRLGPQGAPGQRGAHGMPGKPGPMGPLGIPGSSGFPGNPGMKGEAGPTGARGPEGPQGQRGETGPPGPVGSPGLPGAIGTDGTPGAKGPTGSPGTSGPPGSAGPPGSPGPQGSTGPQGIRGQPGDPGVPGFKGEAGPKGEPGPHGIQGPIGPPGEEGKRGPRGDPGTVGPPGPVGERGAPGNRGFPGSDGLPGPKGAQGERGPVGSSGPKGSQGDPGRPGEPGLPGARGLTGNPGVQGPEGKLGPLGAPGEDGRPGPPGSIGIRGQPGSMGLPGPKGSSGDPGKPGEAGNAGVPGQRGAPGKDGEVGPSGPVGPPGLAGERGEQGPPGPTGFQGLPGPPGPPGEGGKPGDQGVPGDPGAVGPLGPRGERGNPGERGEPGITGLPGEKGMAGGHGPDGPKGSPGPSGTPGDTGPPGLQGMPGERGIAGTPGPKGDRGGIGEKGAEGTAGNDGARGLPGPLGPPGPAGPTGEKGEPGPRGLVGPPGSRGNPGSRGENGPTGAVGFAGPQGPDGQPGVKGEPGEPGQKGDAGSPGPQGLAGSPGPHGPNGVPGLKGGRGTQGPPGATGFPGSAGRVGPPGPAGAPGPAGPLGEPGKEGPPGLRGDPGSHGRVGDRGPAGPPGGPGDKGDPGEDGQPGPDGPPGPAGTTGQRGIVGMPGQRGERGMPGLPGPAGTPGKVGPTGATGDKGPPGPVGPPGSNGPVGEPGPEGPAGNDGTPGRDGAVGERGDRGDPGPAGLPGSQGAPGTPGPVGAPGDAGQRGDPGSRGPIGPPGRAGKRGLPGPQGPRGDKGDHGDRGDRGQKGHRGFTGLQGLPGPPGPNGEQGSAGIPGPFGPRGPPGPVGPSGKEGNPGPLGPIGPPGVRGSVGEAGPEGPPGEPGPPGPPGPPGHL

fold binding over binding to BSA [1]: < 7 fold
percent of the total input bound [1]: 30%
fold binding over binding to BSA [2]: 10 fold
percent of the added astrochondrin bound [2]: < 40%
percent of the total input bound [2]: < 80%
percent of the total input bound at 15 mM NaCl [2]: 30%
fold binding over binding to BSA [3]: 5 fold and 7 fold
fold binding over binding to BSA [4]: < 7 fold
percent of the total input bound [4]: 30%
fold binding over binding to BSA [5]: 10 fold
percent of the added astrochondrin bound [5]: < 40%
percent of the total input bound [5]: < 80%
percent of the total input bound at 15 mM NaCl [5]: 30%
fold binding over binding to BSA [6]: 3.5 fold
percent of the total input bound [6]: 15%
Substance: astrochondrin (natural protein)
